T1: Human INSL5 (human)
T1 construct: also called human insulin-like peptide-5; human INSL5 peptide
T1 chain 1: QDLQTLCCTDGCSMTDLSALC
T1 chain 2: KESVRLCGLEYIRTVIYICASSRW

T2: Mouse INSL5 (mouse)
T2 construct: Bought two-chain peptide (Phoenix Pharmaceuticals Cat #035-40); also called mouse insulin-like peptide-5; mouse INSL5 peptide
T2 chain 1: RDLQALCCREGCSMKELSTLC
T2 chain 2: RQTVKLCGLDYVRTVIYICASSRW


Key:
Human INSL5 [1] = target: T1, Human INSL5; test: SPR (Biacore 8K), antibody captured on Protein A, INSL5 peptide as analyte, 25 C
Experimental: (§1) Human INSL5 (Phoenix Pharmaceuticals Cat #035-70A) and mouse INSL5 (Phoenix Pharmaceuticals 035-40) are reconstituted at 0.5 (99 μM) or 1 mg/mL (195 μM) in DMSO, respectively. […] The antibodies of Example 1, 2, or a negative control are prepared by diluting them to 1 μg/mL in 1×HBS-EP+ buffer.
(§2) The experiment is conducted at 25° C. as well as at 37° C. and initiated with 5 start-up cycles of injecting 1×HBS-EP+ buffer. Then in each cycle, the antibody is captured onto flow cell 2 of channels 1-8 at 10 μL/min for 20 seconds. Next, 180 μL of the respective INSL5 peptide sample is individually injected across flow cells 1 and 2 for 180 seconds at 60 μL/min and then let dissociate for 1200 seconds at 60 μL/min flow rate. The surface is regenerated by injecting two 15 second pulses of 10 mM glycine-HCl pH 1.5 (BR-1003-54) at 30 μL/min. After a stabilization period of 60 seconds at a flow rate of 60 μL/min the next cycle is started.
(§3) The resulting sensorgrams are analyzed using Biacore 8K Evaluation Software). 1:1 binding kinetics model fitting is used to calculate the binding kinetic parameters association rate (ka), dissociation rate (kd), and equilibrium dissociation constant (KD).

Mouse INSL5 [2] = target: T2, Mouse INSL5; test: as above
Experimental: as §1, §2, §3

Human INSL5 [3] = target: T1, Human INSL5; test: SPR (Biacore 8K), antibody captured on Protein A, INSL5 peptide as analyte, 37 C
Experimental: as §1, §2, §3

Mouse INSL5 [4] = target: T2, Mouse INSL5; test: as above
Experimental: as §1, §2, §3

| Binder | Kd (Human INSL5 [1]) [pM] | koff (Human INSL5 [1]) [s⁻¹] | kon (Human INSL5 [1]) [M⁻¹ s⁻¹] | Kd (Mouse INSL5 [2]) [pM] | koff (Mouse INSL5 [2]) [s⁻¹] | kon (Mouse INSL5 [2]) [M⁻¹ s⁻¹] | Kd (Human INSL5 [3]) [pM] | koff (Human INSL5 [3]) [s⁻¹] | kon (Human INSL5 [3]) [M⁻¹ s⁻¹] | Kd (Mouse INSL5 [4]) [pM] | koff (Mouse INSL5 [4]) [s⁻¹] | kon (Mouse INSL5 [4]) [M⁻¹ s⁻¹] |
| --- | --- | --- | --- | --- | --- | --- | --- | --- | --- | --- | --- | --- |
| Antibody I (antibody, V domains shown) VH: QSVEESGGRLVTPGTPLTLTCTASGFSLSSYDMGWVRQTPGEGLEWVGTISAGGYTYYAHWAKGRFTISKSSTTVDLKMTSLTTEDTATYFCARERWNYDRSGGAGAGYFDLWGPGTLVTVSS VL: DVVMTQTASPVSAAVGGTVTINCQASQSITSSYLSWYQQKPGQPPKLLIYPAANLASGVPSRFKGSGSGTQFTLTISGVQCDDAATYYCLYGYFSSSIDFAFGGGTEVVVRG | 41 | 0.00036 | 8.8e+06 | 4.6 | 5.4e-05 | 1.2e+07 | 110 | 0.0026 | 2.4e+07 | 6.7 | 0.00015 | 2.3e+07 |
| Antibody II (antibody, V domains shown) VH: QSVEESGGGLVTPGGSLTLTCTVSGIDLTTYAMGWVRQAPGEGLEWIGIIGGGGRTYYAAWAKGRFTISKTSTTVDLRITSPATEDTATYFCVRGGDFFDLWGPGTLVTVSS VL: AQVLTQTPASVSAAVGGTVTIKCQASEDISKYLSWYQQKPGQRPKLLIYYVSNLEFGVPSRFKGSGSGTEYTLTISDLECDDAATYYCHQGYTGVNVENVFGGGTEVVVRG | 21 | 0.00034 | 1.6e+07 | 6.1 | 0.00011 | 1.8e+07 | 81 | 0.0033 | 4e+07 | 14 | 0.00072 | 5.1e+07 |

From patent US20230257460A1 (Eli Lilly, published 2023)
